The target in this assay is purified B/Washington/02/2019 HA full ectodomain (wild type) fused with TEV cleavage motif, trimeris (influenza B virus B/Washington/02/2019 (B/Victoria)) (UniProt P22092). Nature of the assay: BLI (Octet Red), […], Fab CR9114 at 20 ug/ml; […]. On the technique in general: In BLI a coated tip is dipped into the sample, and binding shifts an interference pattern.

As for fAb CR9114, the OCTET CR9114 30° C. response was 0.48 nm and the OCTET Fab CR9114 response is 0.38 nm.

(Values after patent US20250281595A1.)
